Laboratory results from PMC9135616 (Biophysics and Physicobiology, 2022).
Changes are numbered by the printed parent chain.

Experiments:
Assay in all cases: SEC
wild-type KaiC = target: T1, wild-type KaiC (Synechococcus elongatus PCC 7942, UniProt Q79PF4 1-519)
T1 sequence: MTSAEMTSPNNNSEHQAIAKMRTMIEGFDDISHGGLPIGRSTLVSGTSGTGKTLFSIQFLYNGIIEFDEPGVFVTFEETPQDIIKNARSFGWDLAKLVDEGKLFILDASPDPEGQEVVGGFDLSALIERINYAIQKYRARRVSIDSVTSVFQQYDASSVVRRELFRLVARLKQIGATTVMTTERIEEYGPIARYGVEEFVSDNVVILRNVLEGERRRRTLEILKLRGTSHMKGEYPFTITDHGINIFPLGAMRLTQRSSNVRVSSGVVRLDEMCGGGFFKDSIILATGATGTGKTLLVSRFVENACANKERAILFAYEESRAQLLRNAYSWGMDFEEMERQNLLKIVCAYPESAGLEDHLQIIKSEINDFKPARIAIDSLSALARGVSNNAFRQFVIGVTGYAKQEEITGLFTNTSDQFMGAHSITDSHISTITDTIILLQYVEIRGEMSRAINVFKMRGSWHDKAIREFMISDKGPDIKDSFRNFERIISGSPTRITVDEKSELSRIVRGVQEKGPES

KaiC^C306A = target: T2, KaiC^C306A (Synechococcus elongatus PCC 7942, UniProt Q79PF4 1-519, C306A)
T2 sequence: T1 sequence with C306A

KaiC^F470Y = target: T3, KaiC^F470Y (Synechococcus elongatus PCC 7942, UniProt Q79PF4 1-519, F470Y)
T3 sequence: T1 sequence with F470Y

KaiC^S157P = target: T4, KaiC^S157P (Synechococcus elongatus PCC 7942, UniProt Q79PF4 1-519, S157P)
T4 sequence: T1 sequence with S157P

[1] = target: T5, KaiC-pSpT-mimicking S431D/T432E KaiC mutant (Synechococcus elongatus PCC 7942, UniProt Q79PF4 1-519, S431D | T432E)
T5 sequence: T1 sequence with S431D, T432E

B1: KaiB (natural protein)
chain: MSPRKTYILKLYVAGNTPNSVRALKTLKNILEVEFQGVYALKVIDVLKNPQLAEEDKILATPTLAKVLPLPVRRIIGDLSDREKVLIGLDLLYGELQDSDDF
Question: For B1, which koff (wild-type KaiC) is on record?
Answer: 2.39e-05 s⁻¹

Question: Does B1 bind (KaiC^C306A)?
Answer: binds

Question: Does B1 bind (KaiC^F470Y)?
Answer: binds

Question: Does B1 bind (KaiC^S157P)?
Answer: binds

Question: What about the koff [1] of the same binder?
Answer: 1.56e-06 s⁻¹
